Assay results: patent publication US20040146507A1 (Genentech, published 2004)
Several values for one entry are separate records, joined by “and”; a condition that tells them apart may be missing. Equal entries are not always repeated.

What was measured:
rhesus CD11a [1] = molecular target: T1, rhesus CD11a (rhesus, UniProt H9Z8N3 26-1169); experiment: rhesus PBL binding
T1 construct: whole, on cells; On rhesus peripheral blood lymphocytes or leukocytes; also called rhCD11a
T1 sequence: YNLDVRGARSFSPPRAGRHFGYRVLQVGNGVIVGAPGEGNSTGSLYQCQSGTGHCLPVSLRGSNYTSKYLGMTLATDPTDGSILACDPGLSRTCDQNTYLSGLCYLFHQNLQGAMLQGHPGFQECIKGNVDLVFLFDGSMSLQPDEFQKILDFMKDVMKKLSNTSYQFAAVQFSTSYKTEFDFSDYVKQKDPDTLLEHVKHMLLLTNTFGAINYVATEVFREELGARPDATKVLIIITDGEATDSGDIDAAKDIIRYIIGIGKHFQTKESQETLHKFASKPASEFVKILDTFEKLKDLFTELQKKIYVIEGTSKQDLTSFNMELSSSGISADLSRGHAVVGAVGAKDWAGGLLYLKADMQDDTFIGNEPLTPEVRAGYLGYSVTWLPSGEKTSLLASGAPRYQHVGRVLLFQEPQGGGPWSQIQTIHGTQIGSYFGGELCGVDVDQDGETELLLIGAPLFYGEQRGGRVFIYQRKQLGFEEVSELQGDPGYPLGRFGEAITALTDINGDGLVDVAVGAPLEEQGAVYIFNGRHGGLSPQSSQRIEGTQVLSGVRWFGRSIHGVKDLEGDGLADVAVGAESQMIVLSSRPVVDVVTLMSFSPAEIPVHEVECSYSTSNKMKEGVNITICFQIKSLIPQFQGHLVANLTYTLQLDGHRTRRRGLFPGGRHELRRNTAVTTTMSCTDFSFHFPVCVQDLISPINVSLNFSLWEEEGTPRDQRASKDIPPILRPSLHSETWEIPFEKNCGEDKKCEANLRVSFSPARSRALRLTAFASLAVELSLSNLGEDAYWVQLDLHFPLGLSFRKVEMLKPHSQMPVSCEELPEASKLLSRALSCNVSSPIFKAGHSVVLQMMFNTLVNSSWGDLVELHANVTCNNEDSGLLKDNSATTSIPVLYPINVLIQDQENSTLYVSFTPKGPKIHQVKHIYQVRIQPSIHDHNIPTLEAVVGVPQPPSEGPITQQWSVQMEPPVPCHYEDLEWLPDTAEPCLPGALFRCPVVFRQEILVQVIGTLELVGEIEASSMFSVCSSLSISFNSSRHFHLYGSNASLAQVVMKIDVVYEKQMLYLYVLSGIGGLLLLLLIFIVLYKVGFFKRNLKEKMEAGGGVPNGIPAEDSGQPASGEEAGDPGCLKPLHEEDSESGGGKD

rhesus CD11a [2] = molecular target: T1, rhesus CD11a; experiment: saturation binding
Experimental: (§1) Antibody affinities were determined by saturation binding using either peripheral blood mononuclear cells (murine MHM24 and HuIgG1) or rhesus leukocytes (MHM23, RhIgG1). In each assay, a radiolabeled antibody was serially diluted in HBSS-0.2% gelatin in quadruplicate. Nonspecific binding was determined by the addition of 500 nM final concentration of homologous unlabeled antibody in duplicate through the serial dilution. Human lymphocytes or rhesus leukocytes were added to the plates in a volume of 170 μl per well. Plates were incubated for 2 hr at room temperature on an orbital plate shaker. After incubation, cells were harvested using a SKATRON™ cell harvester (Lier, Norway) and washed 10 times with PBS containing 0.25% gelatin and 0.1% sodium azide. Samples were then counted for 1 min in an LBK Wallac GammaMaster gamma counter (Gaithersburg, Md.). Data was transformed from counts per minute to nanomolarity and four-parameter curve-fitting of saturation plots (bound versus total) was then performed to determine Kd (app) values.

rhesus CD11a [3] = molecular target: T1, rhesus CD11a; experiment: cell-based or functional assay
[4] = molecular target: T2, rhesus-human chimeric CD11a (human (I-domain mutated to rhesus), UniProt P20701 26-1170); experiment: cell-based or functional assay
T2 sequence (looked up): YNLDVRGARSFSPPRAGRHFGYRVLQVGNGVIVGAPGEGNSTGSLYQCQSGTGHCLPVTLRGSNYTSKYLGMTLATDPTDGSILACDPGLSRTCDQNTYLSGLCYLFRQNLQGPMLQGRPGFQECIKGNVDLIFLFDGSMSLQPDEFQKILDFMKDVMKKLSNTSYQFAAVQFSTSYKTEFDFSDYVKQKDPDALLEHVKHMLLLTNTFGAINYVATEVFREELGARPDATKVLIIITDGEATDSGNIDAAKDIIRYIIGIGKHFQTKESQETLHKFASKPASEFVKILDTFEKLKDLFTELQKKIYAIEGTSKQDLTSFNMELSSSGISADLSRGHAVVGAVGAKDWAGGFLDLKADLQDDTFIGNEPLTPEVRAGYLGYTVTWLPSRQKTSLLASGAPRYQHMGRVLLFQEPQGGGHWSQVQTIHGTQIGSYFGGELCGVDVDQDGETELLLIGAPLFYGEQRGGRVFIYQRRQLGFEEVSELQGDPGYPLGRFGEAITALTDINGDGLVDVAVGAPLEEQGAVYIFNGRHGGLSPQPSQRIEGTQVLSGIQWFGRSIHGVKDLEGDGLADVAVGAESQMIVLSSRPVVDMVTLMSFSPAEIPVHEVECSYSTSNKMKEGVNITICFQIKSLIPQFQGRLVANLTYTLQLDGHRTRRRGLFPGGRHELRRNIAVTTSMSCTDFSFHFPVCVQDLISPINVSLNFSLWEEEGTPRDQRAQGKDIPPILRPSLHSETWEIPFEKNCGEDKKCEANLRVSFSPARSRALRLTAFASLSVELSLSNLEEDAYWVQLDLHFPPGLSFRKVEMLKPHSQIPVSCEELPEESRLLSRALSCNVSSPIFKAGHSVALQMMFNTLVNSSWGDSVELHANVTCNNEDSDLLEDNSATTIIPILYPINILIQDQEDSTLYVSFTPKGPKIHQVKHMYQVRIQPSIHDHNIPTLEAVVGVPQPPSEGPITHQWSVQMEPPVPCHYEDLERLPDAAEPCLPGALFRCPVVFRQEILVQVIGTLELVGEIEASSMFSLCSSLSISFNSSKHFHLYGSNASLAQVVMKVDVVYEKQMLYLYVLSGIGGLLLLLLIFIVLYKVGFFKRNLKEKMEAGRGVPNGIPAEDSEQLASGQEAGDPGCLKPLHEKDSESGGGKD

rhesus CD11a [5] = molecular target: T1, rhesus CD11a; experiment: rhesus PBL binding; remark: listed apart in the source
rhesus CD11a [6] = molecular target: T1, rhesus CD11a; experiment: cell-based or functional assay; remark: listed apart in the source
[7] = molecular target: T2, rhesus-human chimeric CD11a; experiment: cell-based or functional assay; remark: listed apart in the source
rhesus CD11a [8] = molecular target: T1, rhesus CD11a; experiment: cell-based or functional assay; remark: listed apart in the source
rhesus CD11a [9] = molecular target: T1, rhesus CD11a; experiment: saturation binding, rhesus leukocytes, donor 1; Kd(app)
Experimental: Radiolabeled antibodies were prepared using Iodo-Gen (Pierce, Rockford, Ill.) according to the manufacturer's instructions. 50 μg of antibody and 1 mCi¹²⁵I (DuPont, Wilmington, Del.) were added to each tube and incubated for 15 min at 25° C. Radiolabeled proteins were purified from the remaining free ¹²⁵I using PD-10 columns (Pharmacia, Uppsala, Sweden) equilibrated in Hank's Balanced Salt Solution (HBSS, Life Technologies, Grand Island, N.Y.) containing 0.2% gelatin.
Leukocytes were purified from heparinized rhesus monkey peripheral blood collected from two individuals by Dextran sedimentation. Blood was diluted with an equal volume of 3% Dextran T500 (Pharmacia) in PBS and was allowed to sediment undisturbed at 25° C. for 30 min. After sedimentation, cells remaining in suspension were harvested and pelleted by centrifugation at 400×g for 5 min. Residual erythrocytes were removed by two cycles of hypotonic lysis using distilled water and 2×HBSS. […]
Antibody affinities were determined by saturation binding using either peripheral blood mononuclear cells (murine MHM24 and HuIgG1) or rhesus leukocytes (MHM23, RhIgG1). […] Nonspecific binding was determined by the addition of 500 nM final concentration of homologous unlabeled antibody in duplicate through the serial dilution. […] Samples were then counted for 1 min in an LBK Wallac GammaMaster gamma counter (Gaithersburg, Md.). […]

rhesus CD11a [10] = molecular target: T1, rhesus CD11a; experiment: rhesus PBL binding; end of range assigned by the printed EC50s
rhesus CD11a [11] = molecular target: T1, rhesus CD11a; experiment: saturation binding, rhesus leukocytes, donor 3, with 1 mg/ml human IgG1; Kd(app)
Experimental: Leukocytes were purified from heparinized rhesus monkey peripheral blood collected from two individuals by Dextran sedimentation. Blood was diluted with an equal volume of 3% Dextran T500 (Pharmacia) in PBS and was allowed to sediment undisturbed at 25° C. for 30 min. After sedimentation, cells remaining in suspension were harvested and pelleted by centrifugation at 400×g for 5 min. Residual erythrocytes were removed by two cycles of hypotonic lysis using distilled water and 2×HBSS. After erythrocyte lysis, cells were washed in PBS and then resuspended in HBSS-0.2% gelatin.
as §1, with “After incubation, cells were harvested using a SKATRON™ cell harvester (Lier, Norway) and washed 10 times with PBS containing 0.25% gelatin and 0.1% sodium azide.” left out, “Data was transformed from counts per minute to nanomolarity and four-parameter curve-fitting of saturation plots (bound versus total) was then performed to determine Kd (app) values.” left out

EC50 (rhesus CD11a [1]): 0.19 nM
fold Kd against Kd of HuIgG1 for human CD11a (rhesus CD11a [2]): ~26 fold
fold less efficacious than MHM23, RhLy: HuICAM adhesion (rhesus CD11a [3]): 4 fold
fold less efficacious than MHM23, RhLy: HuK adhesion (rhesus CD11a [3]): 74 fold
fold down from MHM23, Rh/HuCD11a-293: HuK adhesion [4]: 4 fold
Var.EC50/HuIgG1 EC50 (rhesus CD11a [5]): 0.004 ratio
IC50, blocking of cell adhesion, RhLy: HuICAM (rhesus CD11a [6]): 5.3 nM
IC50, blocking of cell adhesion, RhLy: HuK (rhesus CD11a [6]): 119 nM
IC50, blocking of cell adhesion, Rh/HuCD11a: HuK [7]: 4.9 nM
IC50, rhesus mixed lymphocyte response (rhesus CD11a [8]): 23.4 nM
Kd (rhesus CD11a [9]): 3.9 nM
fold improvement over EC50 of HuIgG1 for rhesus CD11a (rhesus CD11a [10]): 240 to 415 fold
fold weaker than EC50 of HuIgG1 for human CD11a (rhesus CD11a [10]): 3 to 5 fold
Kd (rhesus CD11a [11]): 2.8 nM and 2.7 nM
B1: rhesus-binding MHM24 IgG1 (antibody, V domains shown)
VH: EVQLVESGGGLVQPGGSLRLSCAASGYSFTGHWMNWVRQAPGKGLEWVGMIAPASSSTRYNQKFKDRFTISVDKSKNTLYLQMNSLRAEDTAVYYCARGIYFYGTTYFDYWGQGTLVTVSS
VL: DIQMTQSPSSLSASVGDRVTITCRASKTISKYLAWYQQKPGKAPKLLIYSGSTLQSGVPSRFSGSGSGTDFTLTISSLQPEDFATYYCQQHNEYPLTFGQGTKVEIKR
notes: HuIgG1 mutant (H52 Ala, H53 Ala, H54 Ser, H56 Ser); human IgG1; also called RhIgG1; H2C12
